The target of one assay is T1, EGFR (UniProt P00533 25-645, limits assumed).
T1 construct: Coated on the ELISA plate at 1 µg/ml and also used in the western blot; also called HER1; ErbB1
Description: ELISA, plate coated with 1 µg/ml EGFR, increasing concentration of 29Z6. As for the experimental part:
(§1) ELISA plate was coated with 1 μg/ml of EGFR, HER2, or extracellular domain of HER3. The ELISA was incubated with increasing concentration of 29Z6 followed by incubation with HRP-goat-anti mouse IgG to detect 29Z6 antibody binding. […] Confirmation of the binding specificity was undertaken using western blotting. Only HER3 was bound to 29Z6 while EGFR or HER2 didn't (FIG. 10).

The target in another assay is T2, HER2 (UniProt P04626 23-652, limits assumed).
T2 construct: Coated on the ELISA plate at 1 µg/ml and also used in the western blot; also called ErbB2; Neu
Description: ELISA, plate coated with 1 µg/ml HER2, increasing concentration of 29Z6. As for the experimental part: as §1

Assay [1] concerns the target T3, HER3-Fc fusion comprising the extracellular domain (aa 20-643) of human HER3 (human, UniProt P21860 20-643).
T3 construct: range 20-643; also called human HER3-Fc fusion protein
Description: ELISA, HER3-Fc coated at 1 µg/ml, serial dilution of IgG 29Z6, anti-mouse Fc-HRP detection. How it is done:
Antigen binding of IgG 29Z6 was analyzed in ELISA using immobilized HER3-Fc fusion comprising the extracellular domain (aa 20-643) of human HER3. The HER3-Fc fusion protein was coated onto polystyrene microtiter plates at 1 μg/ml in PBS. Remaining binding sites were blocked with PBS, 2% skimmed milk (MPBS). Plates were then incubated with a serial dilution of IgG 29Z6 in MPBS. After washing, bound antibody was detected with an HRP-conjugated anti-mouse Fc antibody and TMB, H₂O₂ as substrate.

The target of assay [2] is T4, extracellular domain of HER3 (human, UniProt P21860 20-643).
T4 construct: extracellular domain; also called purified extracellular domain of HER3; HER3 receptor ectodomain
T4 sequence (P21860 20-643): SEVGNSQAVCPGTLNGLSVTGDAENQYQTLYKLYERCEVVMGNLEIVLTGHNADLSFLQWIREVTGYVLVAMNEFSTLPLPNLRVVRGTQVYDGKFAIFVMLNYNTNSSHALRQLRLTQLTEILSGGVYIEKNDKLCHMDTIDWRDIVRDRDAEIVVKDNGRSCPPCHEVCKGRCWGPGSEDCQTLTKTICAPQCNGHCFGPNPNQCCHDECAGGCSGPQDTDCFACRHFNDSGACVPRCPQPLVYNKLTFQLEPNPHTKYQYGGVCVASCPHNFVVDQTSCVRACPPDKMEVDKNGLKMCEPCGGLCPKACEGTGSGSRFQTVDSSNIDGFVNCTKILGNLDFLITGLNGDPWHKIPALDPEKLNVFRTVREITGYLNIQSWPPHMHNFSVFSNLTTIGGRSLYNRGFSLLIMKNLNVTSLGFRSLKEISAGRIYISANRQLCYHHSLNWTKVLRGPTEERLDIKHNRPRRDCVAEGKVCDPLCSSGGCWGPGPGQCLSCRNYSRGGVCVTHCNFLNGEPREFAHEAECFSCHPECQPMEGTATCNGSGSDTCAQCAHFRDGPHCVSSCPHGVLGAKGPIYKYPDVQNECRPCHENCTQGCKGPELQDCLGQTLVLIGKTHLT
Description: SPR (Biacore 3000), HER3 extracellular domain amine-coupled on CM5, 29Z6 mAb as analyte, 1:1 model, 25° C. As for the experimental part:
(§2) The binding kinetics of the 29Z6 mAb was analysed by surface plasmon resonance (SPR) using a Biacore3000 optical sensor platform equipped with research-grade CM5 sensor (GE Healthcare Bio-Sciences Corp., Piscataway, N.J.). Purified extracellular domain of HER3 was immobilized on the sensor chip surface of a carboxylated dextran-coated gold film using the standard amine coupling kit following the manufacturer's protocol. Briefly, 70 μL of a mixed solution of NHS/EDC (1:1, v/v) was injected to activate the carboxylated dextran, followed by manual injection of protein in 10 mM NaOAc (pH 4.5) until the desired surface density was reached. Ethanolamine 1 M in water (pH 8.5) was then injected to de-activate residual NHS-esters on the sensor chip. […] Kinetic data were evaluated by globally fitting the sensorgrams to a simple 1:1 interaction model using the Biacore software BiaEvaluation version 4.1 (GE Healthcare Bio-Sciences Corp.). The equilibrium KDs were determined from the resulting kinetic association and dissociation rates (kd/ka), and a minimum of nine independent runs were used to generate the reported standard deviations. A 1:1 binding model was used together with experimentally determined RMax as fixed parameter to determine association rate constant (ka), dissociation rate constant (kd), and equilibrium dissociation constant (KD). […]

For assay [3], the target named is T4, extracellular domain of HER3. Description: SPR (Biacore 3000), HER3 extracellular domain amine-coupled on CM5, 29Z6 mAb 0.1-300 nM as analyte, 1:1 model, 25° C. As for the experimental part: as §2

T3 sequence (P21860 20-643 limits assumed): as the sequence (P21860 20-643) above

B1: anti-HER3 monoclonal antibody 29Z6 (antibody, mouse IgG2a, kappa, V domains shown)
VH: EVQLQESGPSLVKPSQTLSLTCYVTGDSITSGYWNWIRKFPGNKLEYMGYINYSGSTYYNPSLKSRISIIRDTSQNHYNLLLNSVTTEDTATYYCARLGTYYRYAGAMDYWGQGTSVTVSS
VL: DDVLTQTPLSLPVSLGDQASISCRSSQSLVHSNGNTYLHWYLQKPGQSPKLLIYKVSNRFSGVPDRFSGSGSGTDFTLKISRVEAEDLGVYFCSQSTHVPYTFGGGTKLEIKR
notes: also called IgG 29Z6; 29Z6 mAb
In the case of B1, the binding result with EGFR and with HER2 was “no binding” each time. This molecule registered an EC50 in assay [1] of 880 pM. In addition, the koff in assay [2] was 0.000295 s⁻¹. In addition, in assay [2], the kon turned out to be 188000 M⁻¹ s⁻¹. Besides, the Kd in assay [3] worked out at 800 pM.

Values taken from patent US20210246223A1 (CRD PHARMACEUTICALS, published 2021).
